Among the data in PMC314469, “Protein Interaction Networks by Proteome Peptide Scanning” (PLoS Biology, 2004) are normalised SPOT signal, Boehringer light units (BLU); mean over the file's lines of this peptide values, retold here.

First the molecules themselves.
T1: Abp1 SH3 (ABP1_YEAST), P15891
T1 chain: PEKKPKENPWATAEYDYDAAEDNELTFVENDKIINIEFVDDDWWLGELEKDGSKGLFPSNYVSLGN

B1: YGR238C 700-712 (peptide)
chain: GKLLKSYPTSARP
B2: YLR238W 83-96 (peptide)
chain: GTFESKHVVIPFKP
B3: YNL138W 349-361 (peptide)
chain: GSKSGPPPRPKKP
B4: YBR193C 182-195 (peptide)
chain: HASLLVRDSKPSKP
B5: YGL034C 16-28 (peptide)
chain: GRAPRETPEWRRP
B6: YLR299W 81-93 (peptide)
chain: HHNIDIDPLPRRP
B7: YEL019C 178-190 (peptide)
chain: GKIELTSPITSKP
B8: YHL027W 198-211 (peptide)
chain: HITSHLRVHVPLKP
B9: YIL095W 743-756 (peptide)
chain: GKDKSRPPRPPPKP
B10: YDR240C 296-308 (peptide)
chain: GLQGDQFPRQQRP
B11: YDL222C 69-82 (peptide)
chain: GQLANSSSRAPAKP
B12: YHR092C 51-64 (peptide)
chain: HEESNNYVEIPKKP
B13: YDR200C 28-41 (peptide)
chain: GMTKTPETSPPKRP
B14: YNL042W 210-222 (peptide)
chain: GTKSQESPLNKKP
B15: YGR270W 682-694 (peptide)
chain: GSSPQPLPELIKP
B16: YOR006C 4-16 (peptide)
chain: GKNKMHEPKNGRP
B17: YKR028W 953-966 (peptide)
chain: GNPLYTTPKTPPRP
B18: YGL137W 186-199 (peptide)
chain: GVNYVDYYPLPDKP
B19: YJL186W 204-217 (peptide)
chain: GKSIYFSDIVPSKP
B20: YNR036C 60-73 (peptide)
chain: GVVLRVMVLKPKKP
B21: YNL007C 25-38 (peptide)
chain: GYRKAALKYHPDKP
B22: YPL137C 17-30 (peptide)
chain: GKSRRKTNTKPSRP
B23: YKL212W 605-617 (peptide)
chain: GLKYAQSPKFSKP
B24: YIR007W 25-38 (peptide)
chain: GVNLDPSVKIPAKP
B25: YEL036C 221-233 (peptide)
chain: HDKDVIVPNVWRP
B26: YOL085C 38-50 (peptide)
chain: HADSVADPRSSRP
B27: YER100W 55-68 (peptide)
chain: HGTLTFPSDYPYKP
B28: YIR013C 32-45 (peptide)
chain: HGLPRNADSQPARP
B29: YLR023C 375-387 (peptide)
chain: GVFMNWSPRFDRP
B30: YDL203C 543-555 (peptide)
chain: GWYLTGAPNILKP
B31: YHL002W 323-336 (peptide)
chain: HIGDMYGSVTPLRP
B32: YPL107W 67-80 (peptide)
chain: GTKKIAGVQVPAKP
B33: YLL029W 25-37 (peptide)
chain: GTSASHSPRPFRP
B34: YPR160W 817-829 (peptide)
chain: GQFSPENPNEFKP
B35: YHR020W 279-291 (peptide)
chain: GSSELEEPIAIRP
B36: YGL023C 320-333 (peptide)
chain: HKSNVRQISNPKKP
B37: YOR363C 848-861 (peptide)
chain: GVADPQNSLNPSKP
B38: YIL044C 131-143 (peptide)
chain: GLNDSTEPVLHKP
B39: YMR076C 1094-1106 (peptide)
chain: GPQKEEAPKKHRP
B40: YDR443C 544-556 (peptide)
chain: GKDIPFFPSSEKP
B41: YGR196C 563-575 (peptide)
chain: GKLVDLTPASMKP
B42: YMR100W 263-275 (peptide)
chain: HKNFFSQPDINRP
B43: YDR080W 593-606 (peptide)
chain: GNIVEIAPLIPKKP
B44: YDL002C 84-97 (peptide)
chain: HKVKERDPNMPKRP
B45: Q0055 610-622 (peptide)
chain: GYDVKVTPWEKRP
B46: YPR111W 45-57 (peptide)
chain: GRLTPGLPRSYKP
B47: YDL025C 257-270 (peptide)
chain: HHHHHNRGSTPTKP
B48: YPL116W 648-660 (peptide)
chain: GNGMYKIPSNTKP
B49: YOL100W 451-463 (peptide)
chain: GSVWSKTPPEIKP
B50: YLR313C 322-334 (peptide)
chain: GSTAVSFPSSGKP
B51: YOR093C 1314-1326 (peptide)
chain: GVRNIMIPFPNRP
B52: YFL015C 82-94 (peptide)
chain: HSYRQLAPTHHRP
B53: YOR181W 384-396 (peptide)
chain: GPAPPPPPRASRP
B54: YGR019W 332-345 (peptide)
chain: GYFFHDPKFIPNKP

The assay concerns the target T1, Abp1 SH3 (ABP1_YEAST), P15891. Kind of assay: SPOT array.
B1 came in with a normalised SPOT signal, Boehringer light units (BLU); mean over the file's lines of this peptide of 204. B2: the normalised SPOT signal, Boehringer light units (BLU); mean over the file's lines of this peptide is 83.5. As for B3, the figure is 25200; as for B4, 91.3; as for B5, 2720.

B6 returned a normalised SPOT signal, Boehringer light units (BLU); mean over the file's lines of this peptide of 55.3. To B7 belongs 73.6.

The molecule B8 came in with a normalised SPOT signal, Boehringer light units (BLU); mean over the file's lines of this peptide of 285. To B9 belongs 41900; to B10, 124; to B11, 127. As for B12, the figure is 137; as for B13, 169; as for B14, 58.6. As for B15, the figure is 55.9; as for B16, 224; as for B17, 292. In the case of B18, the normalised SPOT signal, Boehringer light units (BLU); mean over the file's lines of this peptide was determined as 122. Molecule B19 gave a normalised SPOT signal, Boehringer light units (BLU); mean over the file's lines of this peptide of 108.

B20 had a normalised SPOT signal, Boehringer light units (BLU); mean over the file's lines of this peptide of 131. In turn, B21 came in with a normalised SPOT signal, Boehringer light units (BLU); mean over the file's lines of this peptide of 172. On to B22, for which the normalised SPOT signal, Boehringer light units (BLU); mean over the file's lines of this peptide was 65.2.

Turning to B23, the normalised SPOT signal, Boehringer light units (BLU); mean over the file's lines of this peptide came to 131.

Consider B24, for which the normalised SPOT signal, Boehringer light units (BLU); mean over the file's lines of this peptide came to 112. To B25 belongs 123; to B26, 107; to B27, 124. As for B28, the figure is 154; as for B29, 176. Molecule B30 gave a normalised SPOT signal, Boehringer light units (BLU); mean over the file's lines of this peptide of 102. Turning to B31, the normalised SPOT signal, Boehringer light units (BLU); mean over the file's lines of this peptide was 122. As for B32, the figure is 106; as for B33, 134; as for B34, 60.8. As for B35, the figure is 107. As for B36, the figure is 98.3; as for B37, 48.5.

Turning to B38, the normalised SPOT signal, Boehringer light units (BLU); mean over the file's lines of this peptide was 135. To B39 belongs 86.6. To B40 belongs 140; to B41, 41.6; to B42, 85.4. The molecule B43 had a normalised SPOT signal, Boehringer light units (BLU); mean over the file's lines of this peptide of 318. The molecule B44 returned a normalised SPOT signal, Boehringer light units (BLU); mean over the file's lines of this peptide of 156. B45 showed a normalised SPOT signal, Boehringer light units (BLU); mean over the file's lines of this peptide of 139. To B46 belongs 866; to B47, 257; to B48, 499. As for B49, the figure is 87.2; as for B50, 108. The molecule B51 registered a normalised SPOT signal, Boehringer light units (BLU); mean over the file's lines of this peptide of 2310. To B52 belongs 703; to B53, 8770; to B54, 174.
